In assay [1] the target is T1, wild-type CBP80 expressed alone in insect cells (human, UniProt Q09161 1-790).
T1 sequence: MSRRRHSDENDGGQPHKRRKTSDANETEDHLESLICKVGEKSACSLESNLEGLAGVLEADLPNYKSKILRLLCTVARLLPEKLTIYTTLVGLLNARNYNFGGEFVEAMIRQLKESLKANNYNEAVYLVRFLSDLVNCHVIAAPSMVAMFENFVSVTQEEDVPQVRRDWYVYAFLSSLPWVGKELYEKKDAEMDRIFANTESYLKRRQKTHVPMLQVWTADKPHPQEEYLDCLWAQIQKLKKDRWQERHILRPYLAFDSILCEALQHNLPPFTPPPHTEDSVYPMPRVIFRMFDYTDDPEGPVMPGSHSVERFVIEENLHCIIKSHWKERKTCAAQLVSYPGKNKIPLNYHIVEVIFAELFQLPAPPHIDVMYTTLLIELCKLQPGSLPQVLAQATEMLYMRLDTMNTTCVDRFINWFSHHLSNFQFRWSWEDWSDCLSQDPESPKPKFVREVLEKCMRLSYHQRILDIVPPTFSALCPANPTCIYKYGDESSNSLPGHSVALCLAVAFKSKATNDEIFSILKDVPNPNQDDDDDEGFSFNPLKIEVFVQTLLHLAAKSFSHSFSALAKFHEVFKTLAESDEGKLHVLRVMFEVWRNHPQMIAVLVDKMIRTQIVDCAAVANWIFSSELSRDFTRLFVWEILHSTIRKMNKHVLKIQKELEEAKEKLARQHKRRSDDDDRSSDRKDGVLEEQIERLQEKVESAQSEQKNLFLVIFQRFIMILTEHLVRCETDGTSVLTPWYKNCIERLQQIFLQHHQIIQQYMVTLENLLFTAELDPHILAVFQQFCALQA
Briefly: pull-down.

Assay [2] deals with T2, full-length human importin-β1 (human, UniProt Q14974 1-876). Briefly: native gel or EMSA. In general terms: A gel shift assay detects complexes by their altered migration in electrophoresis.
T2 sequence (Q14974 whole entry): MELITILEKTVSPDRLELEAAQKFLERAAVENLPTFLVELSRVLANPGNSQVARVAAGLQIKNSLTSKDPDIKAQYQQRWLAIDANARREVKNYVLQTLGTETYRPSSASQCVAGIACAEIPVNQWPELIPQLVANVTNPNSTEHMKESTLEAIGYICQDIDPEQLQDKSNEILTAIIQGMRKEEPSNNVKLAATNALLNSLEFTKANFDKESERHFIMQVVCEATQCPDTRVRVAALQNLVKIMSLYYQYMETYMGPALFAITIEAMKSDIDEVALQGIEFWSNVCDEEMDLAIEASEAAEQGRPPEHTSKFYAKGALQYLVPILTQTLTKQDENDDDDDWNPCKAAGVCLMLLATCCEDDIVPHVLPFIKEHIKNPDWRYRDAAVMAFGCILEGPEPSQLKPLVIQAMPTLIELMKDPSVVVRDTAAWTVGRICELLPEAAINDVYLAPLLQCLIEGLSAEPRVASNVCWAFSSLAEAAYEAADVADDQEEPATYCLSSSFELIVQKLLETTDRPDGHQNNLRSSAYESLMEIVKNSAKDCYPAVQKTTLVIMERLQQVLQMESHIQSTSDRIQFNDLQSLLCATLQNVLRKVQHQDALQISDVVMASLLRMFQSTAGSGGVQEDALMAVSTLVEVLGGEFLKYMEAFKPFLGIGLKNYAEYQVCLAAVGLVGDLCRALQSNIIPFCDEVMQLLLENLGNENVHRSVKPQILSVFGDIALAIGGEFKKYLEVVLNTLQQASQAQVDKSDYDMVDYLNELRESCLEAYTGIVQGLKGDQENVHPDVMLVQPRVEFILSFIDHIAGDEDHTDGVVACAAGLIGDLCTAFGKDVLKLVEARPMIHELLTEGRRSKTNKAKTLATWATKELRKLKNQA
Assay [3] deals with T2, full-length human importin-β1. Briefly: pull-down.
The target of assay [4] is T3, full-length human importin-α isoform 1 (karyopherin-α2) (human, UniProt P52292 1-529). Briefly: pull-down.
Assay [5] addresses T3, full-length human importin-α isoform 1 …. Briefly: SEC. A general note: Size exclusion chromatography separates by hydrodynamic size, large species first.

B1: His-tagged CBP20 Δ1–14Δ126–156 (domain or fragment)
chain: VELSQYRDQHFRGDNEEQEKLLKKSCTLYVGNLSFYTTEEQIYELFSKSGDIKKIIMGLDKMKKTACGFCFVEYYSRADAENAMRYINGTRLDDRIIRTDWDAGFKEGRQY
For the molecule B1, the binding result in assay [1] was “binds”.

B2: CBP20 Δ126–156 (domain or fragment)
chain: MSGGLLKALRSDSYVELSQYRDQHFRGDNEEQEKLLKKSCTLYVGNLSFYTTEEQIYELFSKSGDIKKIIMGLDKMKKTACGFCFVEYYSRADAENAMRYINGTRLDDRIIRTDWDAGFKEGRQY
B2: the binding result in assay [2] was “binds”.

B3: His-tagged CBP20 Δ126–156 (domain or fragment)
chain: B2 chain
On to B3, for which the binding result in assay [1] is “binds”.

B4: His-tagged full-length CBP20 (natural protein)
chain: MSGGLLKALRSDSYVELSQYRDQHFRGDNEEQEKLLKKSCTLYVGNLSFYTTEEQIYELFSKSGDIKKIIMGLDKMKKTACGFCFVEYYSRADAENAMRYINGTRLDDRIIRTDWDAGFKEGRQYGRGRSGGQVRDEYRQDYDAGRGGYGKLAQNQ
For B4, the binding result in assay [3] and in assay [1] was “binds” in each case.

B5: apo-CBC reconstituted from His-tagged CBP20 and CBP80 (complex)
chain 1: B4 chain
chain 2: T1 sequence
With B5, the binding result in assay [4] is “binds”.

B6: full-length CBP20 (natural protein)
chain: B4 chain
Consider B6, for which the binding result in assay [2] was “binds”.

B7: human nuclear cap-binding complex (CBC), CBP20 and CBP80 co-expressed (complex)
chain 1: T1 sequence
chain 2: B4 chain
Turning to B7, the binding result in assay [5] was “binds”.

B8: His-tagged CBP20 Δ1–14 (domain or fragment)
chain: VELSQYRDQHFRGDNEEQEKLLKKSCTLYVGNLSFYTTEEQIYELFSKSGDIKKIIMGLDKMKKTACGFCFVEYYSRADAENAMRYINGTRLDDRIIRTDWDAGFKEGRQYGRGRSGGQVRDEYRQDYDAGRGGYGKLAQNQ
In the case of B8, the binding result in assay [1] is “binds”.

B9: CBP20 Δ1–14 (domain or fragment)
chain: B8 chain
Regarding B9, in assay [2], the binding result was “binds”.

Values taken from publication PMC2782468 (Nature structural & molecular biology, 2009).
